The chains are these.
B1: HLA-G-0039 (antibody, V domains shown)
VH: EVQLLESGGGLVQPGGSLRLSCAASGFTFSSYAMNWVRQAPGKGLEWVSVISGSGVSTYYADSVKGRFTISRDNSRNTLSLQMNSLRAEDTAVYYCAKDGSYNYGYGDYFDYWGQGTLVTVSS
VL: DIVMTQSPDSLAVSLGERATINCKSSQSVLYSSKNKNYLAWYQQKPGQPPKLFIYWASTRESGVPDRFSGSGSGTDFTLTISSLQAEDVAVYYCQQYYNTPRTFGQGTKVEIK
notes: Human antibody from humanized OmniRat (OMT) rats
B2: HLA-G-0041 (antibody, V domains shown)
VH: B1 VH with S31T, A33G, N35S, S54G, R76K, S80Y, S85R
VL: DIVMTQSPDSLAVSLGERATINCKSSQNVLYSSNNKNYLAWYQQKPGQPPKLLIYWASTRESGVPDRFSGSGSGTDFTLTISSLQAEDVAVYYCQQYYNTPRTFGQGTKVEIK
notes: as for B1
B3: HLA-G-0090 (antibody, V domains shown)
VH: QVQLQQSGPGLLKPSQTLSLTCAISGDSVSSNRAAWNWIRQSPSRGLEWLGRTYYRSKWYNDYAVSVQGRITLIPDTSKNQFSLRLNSVTPEDTAVYYCASVRAVAPFDYWGQGVLVTVSS
VL: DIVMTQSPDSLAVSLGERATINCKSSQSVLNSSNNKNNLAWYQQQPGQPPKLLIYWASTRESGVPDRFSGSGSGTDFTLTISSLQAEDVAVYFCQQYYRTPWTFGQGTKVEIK
notes: as for B1
B4: HLA-G-0031 (antibody, V domains shown)
VH: QVKLMQSGAALVKPGTSVKMSCNASGYTFTDYWVSWVKQSHGKRLEWVGEISPNSGASNFDENFKDKATLTVDKSTSTAYMELSRLTSEDSAIYYCTRSSHGSFRWFAYWGQGTLVTVSS
VL: AIVLNQSPSSIVASQGEKVTITCRASSSVSSNHLHWYQQKPGAFPKFVIYSTSQRASGIPSRFSGSGSGTSYSFTISRVEAEDVATYYCQQGSSNPYTFGAGTKLELK
notes: Rat monoclonal antibody obtained from CD rats

The record followed here is patent publication US20250051455A1 (Hoffmann-La Roche, published 2025).

Numbering of substitutions follows the chain as printed.

The target of the first test is T1, modified human HLA-G β2M MHC class I complex (HLA-G specific amino acids replaced by HLA-A consensus amino … (human)).
T1 construct: Counter antigen: single-chain fusion of peptide, beta-2 microglobulin and HLA-G in which 14 HLA-G unique surface positions were mutated to an HLA-A consensus; also called degrafted HLA-G; HLA-G-0007
In words: ELISA, biotinylated degrafted HLA-G on streptavidin plate. As for the experimental part:
Streptavidin coated plates (Nunc, MicroCoat #11974998001) were coated with 25 μl/well biotinylated human degrafted HLA-G at a concentration of 250 ng/ml and incubated at 4° C. overnight. After washing (3×90 μl/well with PBST-buffer) 25 μl anti-HLA-G samples (1:3 dilution in OSEP buffer) or rat serum (1:600 dilution in OSEP) were added and incubated 1 h at RT. After washing (3×90 μl/well with PBST-buffer) 25 μl/well of a mixture of goat-anti-rat IgG1-POD (Bethyl #A110-106P), goat-anti-rat IgG2a-POD (Bethyl #A110-109P) and goat-anti-rat IgG2b-POD (Bethyl #A110-111P) 1:10000 in OSEP was added and incubated at RT for 1 h on shaker. After washing (6×90 μl/well with PBST-buffer) 25 μl/well TMB substrate (Roche, 11835033001) was added and incubated until OD 2-3. Measurement took place on a Tecan Safire 2 instrument at 370/492 nm.
(§1) The above table summarizes the binding of different rat anti-human HLA-G monoclonal antibodies, derived from wt protein IMS both of wt as well as OMT rats. Shown are the relative EC50 values [ng/ml] and maximal OD of the respective binding to rec. wt monomeric HLA-G protein or the socalled gegrafted HLA-G (HLA-A consensus sequence on HLA-G backbone) protein as assessed by ELISA. The ELISA was set up by coating the biotinylated wt HLA-G or consensus antigen to strepdavidin plates. After incubation and washing steps, the respective antibodies were bound in a concentration range from 10-0 μg in 1:2 dilution steps. Detection of bound antibodies was carried out by anti-Fc-antibody-POD conjugates. EC50 values were determined from the resulting binding curves at the antibody concentrations generating the half-maximal signal.
For orientation: ELISA stands for enzyme-linked immunosorbent assay.
Take B1: the “Max. OD” value was 0.13 OD.
Same read-out and setting: the figure for B2 is 0.15 OD.
On the same count and under the same terms, in the case of B3 it was 0.2 OD.
Take B4: the “Max. OD” value was 0.13 OD.

In a further test the target is T2, recombinant soluble human HLA-G β2M MHC class I complex, trimer (human).
T2 construct: Non-biotinylated; also called HLA-G Trimer; trimeric HLA-G
In words: ELISA, HLA-G trimer coated at random on plate. The procedure: as §1, with “IMS.” for “IMS both of wt as well as OMT rats.”, “[ng/ml]” for “[ng/ml] and maximal OD”, “monomeric, dimeric and trimeric” for “monomeric”, “proteins” for “protein or the socalled gegrafted HLA-G (HLA-A consensus sequence on HLA-G backbone) protein”, “HLA-G” for “HLA-G or consensus”, “signal. In case of the non-biotinylated HLA-G dimer and trimer antigens, immobilization was carried out by random coating on assay plates.” for “signal.”
Consider B1, for which the EC50 is 5.29 nM.
B2: the EC50 stood at 4.87 nM.
On to B4, for which the EC50 is 1.86 nM.

A further test has as its target T3, recombinant soluble human HLA-G β2M MHC class I complex, monomer (human).
T3 construct: His tagged; biotinylated where coated on streptavidin plates, non-biotinylated in SPR; also called HLA-G-0003; wt HLA-G (monomer)
In words: blocking ELISA on biotinylated wt HLA-G; competitor ILT-4.
As for B1, the “% inh. ILT4 (3 µg/ml antibody)” value was 23.9%.
Take B2: the “% inh. ILT4 (3 µg/ml antibody)” value was 18.4%.
With B4, the “% inh. ILT4 (3 µg/ml antibody)” value is 39.8%.

A further test deals with T3, recombinant soluble human HLA-G β2M MHC …. In words: ELISA (EC50 rel), biotinylated wt HLA-G monomer on streptavidin plate. The procedure: Streptavidin coated plates (Nunc, MicroCoat #11974998001) were coated with 25 μl/well biotinylated human wt HLA-G at a concentration of 250 ng/ml and incubated at 4° C. overnight. After washing (3×90 μl/well with PBST-buffer) 25 μl anti-HLA-G samples (1:3 dilution in OSEP buffer) or reference antibody (G233, Thermo/Pierce #MA1-19449, 500 ng/ml) were added and incubated 1 h at RT. After washing (3×90 μl/well with PBST-buffer) 25 μl/well goat-anti-mouse H+L-POD (Biorad #170-6561, 1:2000 in OSEP) or donkey-anti-rabbit IgG POD (GE #NA9340V, 1:5000 in OSE) was added and incubated at RT for 1 h on shaker. For detection of rat IgGs a mixture of goat-anti-rat IgG1-POD (Bethyl #A110-106P), goat-anti-rat IgG2a-POD (Bethyl #A110-109P) and goat-anti-rat IgG2b-POD (Bethyl #A110-111P) 1:10000 in OSEP was added and incubated at RT for 1 h on shaker. After washing (6×90 μl/well with PBST-buffer) 25 μl/well TMB substrate (Roche, 11835033001) was added and incubated until OD 2-3. Measurement took place on a Tecan Safire 2 instrument at 370/492 nm.
as §1
As to B1, the EC50 turned out to be 7.35 ng/mL.
On the same count and under the same terms, in the case of B2 it was 8.6 ng/mL; in that of B3, 10.4 ng/mL; in that of B4, 7.19 ng/mL.

As usually defined, the EC50 is the concentration needed to bring the measured effect to its halfway point.
